Experimental data from article PMC2661964, “Mammalian Kinesin-3 Motors Are Dimeric In Vivo and Move by Processive Motility upon Release of Autoinhibition” (PLoS Biology, 2009).

Tests used:
[1] = target: the molecule itself; assay: cross-linking; lysates of transfected COS cells in borate buffer (50 mM NaBorate, 100 mM potassium acetate, 2 mM MgCl2, 1 mM EGTA, 1% Triton X-100, pH 8.57), 20 mM DMP for 30 min or untreated; SDS-PAGE, immunoblot
[2] = target: the molecule itself; assay: stepwise photobleaching of single molecules (TIRF microscopy); lysates of COS cells expressing 3xmCit-tagged constructs, in flow chambers with Cy5-microtubules, with AMPPNP; number of bleaching steps of 160–200 spots for each construct

Row | Protein | stoichiometry N [1] | stoichiometry N [2]
1 | KIF1A(1–726)-mCit (domain or fragment, rat, UniProt F1M4A4 1-726, looked up, source: COS cells, transfected, in lysate; not shown: mCit (monomeric citrine), C-terminal, kept) MAGASVKVAVRVRPFNSREMSRDSKCIIQMSGSTTTIVNPKQPKETPKSFSFDYSYWSHTSPEDINYASQKQVYRDIGEEMLQHAFEGYNVCIFAYGQTGAGKSYTMMGKQEKDQQGIIPQLCEDLFSRINDTTNDNMSYSVEVSYMEIYCERVRDLLNPKNKGNLRVREHPLLGPYVEDLSKLAVTSYNDIQDLMDSGNKARTVAATNMNETSSRSHAVFNIIFTQKRHDAETNITTEKVSKISLVDLAGSERADSTGAKGTRLKEGANINKSLTTLGKVISALAEMDSGPNKNKKKKKTDFIPYRDSVLTWLLRENLGGNSRTAMVAALSPADINYDETLSTLRYADRAKQIRCNAIINEDPNNKLIRELKDEVTRLRDLLYAQGLGDITDTNTVPGGPKLTNALVGMSPSSSLSALSSRAASVSSLHERILFAPGSEEAIERLKETEKIIAELNETWEEKLRRTEAIRMEREALLAEMGVAMREDGGTLGVFSPKKTPHLVNLNEDPLMSECLLYYIKDGVTRVGREDAERRQDIVLSGHFIKEEHCIFRSDSRGGGEAVVTLEPCEGADTYVNGKKVTEPSILRSGNRIIMGKSHVFRFNHPEQARQERERTPCAETPAEPVDWAFAQRELLEKQGIDMKQEMEQRLQELEDQYRREREEATYLLEQQRLDYESKLEALQKQMDSRYYPEVNEEEEEPEDEVQWTERECELALWAFRKWKWY | 2 | –
2 | KIF1A-3xmCit (natural protein, rat, UniProt F1M4A4 1-1707, looked up, KIF1A (Kinesin-3 motor), rat, full length; Vector 3xmCit-N1; also called FL; 3xmCit-tagged FL KIF1A; source: COS cells, transfected, in lysate) MAGASVKVAVRVRPFNSREMSRDSKCIIQMSGSTTTIVNPKQPKETPKSFSFDYSYWSHTSPEDINYASQKQVYRDIGEEMLQHAFEGYNVCIFAYGQTGAGKSYTMMGKQEKDQQGIIPQLCEDLFSRINDTTNDNMSYSVEVSYMEIYCERVRDLLNPKNKGNLRVREHPLLGPYVEDLSKLAVTSYNDIQDLMDSGNKARTVAATNMNETSSRSHAVFNIIFTQKRHDAETNITTEKVSKISLVDLAGSERADSTGAKGTRLKEGANINKSLTTLGKVISALAEMDSGPNKNKKKKKTDFIPYRDSVLTWLLRENLGGNSRTAMVAALSPADINYDETLSTLRYADRAKQIRCNAIINEDPNNKLIRELKDEVTRLRDLLYAQGLGDITDTNTVPGGPKLTNALVGMSPSSSLSALSSRAASVSSLHERILFAPGSEEAIERLKETEKIIAELNETWEEKLRRTEAIRMEREALLAEMGVAMREDGGTLGVFSPKKTPHLVNLNEDPLMSECLLYYIKDGVTRVGREDAERRQDIVLSGHFIKEEHCIFRSDSRGGGEAVVTLEPCEGADTYVNGKKVTEPSILRSGNRIIMGKSHVFRFNHPEQARQERERTPCAETPAEPVDWAFAQRELLEKQGIDMKQEMEQRLQELEDQYRREREEATYLLEQQRLDYESKLEALQKQMDSRYYPEVNEEEEEPEDEVQWTERECELALWAFRKWKWYQFTSLRDLLWGNAIFLKEANAISVELKKKVQFQFVLLTDTLYSPLPPDLLPPEAAKDRETRPFPRTIVAVEVQDQKNGATHYWTLEKLRQRLDLMREMYDRAAEVPSSVVEDCDNVVTGGDPFYDRFPWFRLVGRAFVYLSNLLYPVPLVHRVAIVSEKGEVKGFLRVAVQAISADEEAPDYGSGVRQSGTAKISFDDQHFEKFQSESCPVVGMSRSGTSQEELRIVEGQGQGADAGPSADEVNNNTCSAVPPEGLLDSPEKAALDGPLDTALDHLRLGSTFTFRVTVLQASSISAEYADIFCQFNFIHRHDEAFSTEPLKNTGRGPPLGFYHVQNIAVEVTKSFIEYIKSQPIVFEVFGHYQQHPFPPLCKDVLSPLRPSRRHFPRVMPLSKPVPATKLSTMTRPSPGPCHCKYDLLVYFEICELEANGDYIPAVVDHRGGMPCMGTFLLHQGIQRRITVTLLHETGSHIRWKEVRELVVGRIRNTPETDEALIDPNILSLNILSSGYVHPAQDDRQFLDSDIPRTFYQFEAAWDSSMHNSLLLNRVTPYREKIYMTLSAYIEMENCTQPAVITKDFCMVFYSRDAKLPASRSIRNLFGSGSLRATEGNRVTGVYELSLCHVADAGSPGMQRRRRRVLDTSVAYVRGEENLAGWRPRSDSLILDHQWELEKLSLLQEVEKTRHYLLLREKLETTQRPVPEVLSPASSEDSESRSSSGASSPLSAEGQPSPLEVPNERQRELAVKCLRLLMHTFNREYTHSHVCISASESKLSEMSVTLMRDPSMSPLGAATLTPSSTCPSLIEGRYGATDVRTPQPCSRPASPEPELLPELDSKKTPSPVRATETEKEPQRLLVPDIQEIRVSPIVSKKGYLHFLEPHTAGWAKRFVVVRRPYAYMYNSDKDTVERFVLNLSTAQVEYSEDQQAMLKTPNTFAVCTEHRGILLQANSDKDMHDWLYAFNPLLAGTIRSKLSRRRSAQMRV | – | 2
3 | Myc-KIF1A (natural protein, rat, UniProt F1M4A4 1-1707, looked up, KIF1A (Kinesin-3 motor), rat, full length; Cloned into pRK5-Myc; also called Myc-tagged KIF1A; FL KIF1A; source: COS cells, transfected, in lysate) MAGASVKVAVRVRPFNSREMSRDSKCIIQMSGSTTTIVNPKQPKETPKSFSFDYSYWSHTSPEDINYASQKQVYRDIGEEMLQHAFEGYNVCIFAYGQTGAGKSYTMMGKQEKDQQGIIPQLCEDLFSRINDTTNDNMSYSVEVSYMEIYCERVRDLLNPKNKGNLRVREHPLLGPYVEDLSKLAVTSYNDIQDLMDSGNKARTVAATNMNETSSRSHAVFNIIFTQKRHDAETNITTEKVSKISLVDLAGSERADSTGAKGTRLKEGANINKSLTTLGKVISALAEMDSGPNKNKKKKKTDFIPYRDSVLTWLLRENLGGNSRTAMVAALSPADINYDETLSTLRYADRAKQIRCNAIINEDPNNKLIRELKDEVTRLRDLLYAQGLGDITDTNTVPGGPKLTNALVGMSPSSSLSALSSRAASVSSLHERILFAPGSEEAIERLKETEKIIAELNETWEEKLRRTEAIRMEREALLAEMGVAMREDGGTLGVFSPKKTPHLVNLNEDPLMSECLLYYIKDGVTRVGREDAERRQDIVLSGHFIKEEHCIFRSDSRGGGEAVVTLEPCEGADTYVNGKKVTEPSILRSGNRIIMGKSHVFRFNHPEQARQERERTPCAETPAEPVDWAFAQRELLEKQGIDMKQEMEQRLQELEDQYRREREEATYLLEQQRLDYESKLEALQKQMDSRYYPEVNEEEEEPEDEVQWTERECELALWAFRKWKWYQFTSLRDLLWGNAIFLKEANAISVELKKKVQFQFVLLTDTLYSPLPPDLLPPEAAKDRETRPFPRTIVAVEVQDQKNGATHYWTLEKLRQRLDLMREMYDRAAEVPSSVVEDCDNVVTGGDPFYDRFPWFRLVGRAFVYLSNLLYPVPLVHRVAIVSEKGEVKGFLRVAVQAISADEEAPDYGSGVRQSGTAKISFDDQHFEKFQSESCPVVGMSRSGTSQEELRIVEGQGQGADAGPSADEVNNNTCSAVPPEGLLDSPEKAALDGPLDTALDHLRLGSTFTFRVTVLQASSISAEYADIFCQFNFIHRHDEAFSTEPLKNTGRGPPLGFYHVQNIAVEVTKSFIEYIKSQPIVFEVFGHYQQHPFPPLCKDVLSPLRPSRRHFPRVMPLSKPVPATKLSTMTRPSPGPCHCKYDLLVYFEICELEANGDYIPAVVDHRGGMPCMGTFLLHQGIQRRITVTLLHETGSHIRWKEVRELVVGRIRNTPETDEALIDPNILSLNILSSGYVHPAQDDRQFLDSDIPRTFYQFEAAWDSSMHNSLLLNRVTPYREKIYMTLSAYIEMENCTQPAVITKDFCMVFYSRDAKLPASRSIRNLFGSGSLRATEGNRVTGVYELSLCHVADAGSPGMQRRRRRVLDTSVAYVRGEENLAGWRPRSDSLILDHQWELEKLSLLQEVEKTRHYLLLREKLETTQRPVPEVLSPASSEDSESRSSSGASSPLSAEGQPSPLEVPNERQRELAVKCLRLLMHTFNREYTHSHVCISASESKLSEMSVTLMRDPSMSPLGAATLTPSSTCPSLIEGRYGATDVRTPQPCSRPASPEPELLPELDSKKTPSPVRATETEKEPQRLLVPDIQEIRVSPIVSKKGYLHFLEPHTAGWAKRFVVVRRPYAYMYNSDKDTVERFVLNLSTAQVEYSEDQQAMLKTPNTFAVCTEHRGILLQANSDKDMHDWLYAFNPLLAGTIRSKLSRRRSAQMRV | ~2 | –
4 | mCit-KIF1A (natural protein, rat, UniProt F1M4A4 1-1707, looked up, KIF1A (Kinesin-3 motor), rat, full length; also called mCit-tagged KIF1A; FL KIF1A; source: COS cells, transfected; in lysate and in live cells; not shown: mCit (monomeric citrine), N-terminal, kept) MAGASVKVAVRVRPFNSREMSRDSKCIIQMSGSTTTIVNPKQPKETPKSFSFDYSYWSHTSPEDINYASQKQVYRDIGEEMLQHAFEGYNVCIFAYGQTGAGKSYTMMGKQEKDQQGIIPQLCEDLFSRINDTTNDNMSYSVEVSYMEIYCERVRDLLNPKNKGNLRVREHPLLGPYVEDLSKLAVTSYNDIQDLMDSGNKARTVAATNMNETSSRSHAVFNIIFTQKRHDAETNITTEKVSKISLVDLAGSERADSTGAKGTRLKEGANINKSLTTLGKVISALAEMDSGPNKNKKKKKTDFIPYRDSVLTWLLRENLGGNSRTAMVAALSPADINYDETLSTLRYADRAKQIRCNAIINEDPNNKLIRELKDEVTRLRDLLYAQGLGDITDTNTVPGGPKLTNALVGMSPSSSLSALSSRAASVSSLHERILFAPGSEEAIERLKETEKIIAELNETWEEKLRRTEAIRMEREALLAEMGVAMREDGGTLGVFSPKKTPHLVNLNEDPLMSECLLYYIKDGVTRVGREDAERRQDIVLSGHFIKEEHCIFRSDSRGGGEAVVTLEPCEGADTYVNGKKVTEPSILRSGNRIIMGKSHVFRFNHPEQARQERERTPCAETPAEPVDWAFAQRELLEKQGIDMKQEMEQRLQELEDQYRREREEATYLLEQQRLDYESKLEALQKQMDSRYYPEVNEEEEEPEDEVQWTERECELALWAFRKWKWYQFTSLRDLLWGNAIFLKEANAISVELKKKVQFQFVLLTDTLYSPLPPDLLPPEAAKDRETRPFPRTIVAVEVQDQKNGATHYWTLEKLRQRLDLMREMYDRAAEVPSSVVEDCDNVVTGGDPFYDRFPWFRLVGRAFVYLSNLLYPVPLVHRVAIVSEKGEVKGFLRVAVQAISADEEAPDYGSGVRQSGTAKISFDDQHFEKFQSESCPVVGMSRSGTSQEELRIVEGQGQGADAGPSADEVNNNTCSAVPPEGLLDSPEKAALDGPLDTALDHLRLGSTFTFRVTVLQASSISAEYADIFCQFNFIHRHDEAFSTEPLKNTGRGPPLGFYHVQNIAVEVTKSFIEYIKSQPIVFEVFGHYQQHPFPPLCKDVLSPLRPSRRHFPRVMPLSKPVPATKLSTMTRPSPGPCHCKYDLLVYFEICELEANGDYIPAVVDHRGGMPCMGTFLLHQGIQRRITVTLLHETGSHIRWKEVRELVVGRIRNTPETDEALIDPNILSLNILSSGYVHPAQDDRQFLDSDIPRTFYQFEAAWDSSMHNSLLLNRVTPYREKIYMTLSAYIEMENCTQPAVITKDFCMVFYSRDAKLPASRSIRNLFGSGSLRATEGNRVTGVYELSLCHVADAGSPGMQRRRRRVLDTSVAYVRGEENLAGWRPRSDSLILDHQWELEKLSLLQEVEKTRHYLLLREKLETTQRPVPEVLSPASSEDSESRSSSGASSPLSAEGQPSPLEVPNERQRELAVKCLRLLMHTFNREYTHSHVCISASESKLSEMSVTLMRDPSMSPLGAATLTPSSTCPSLIEGRYGATDVRTPQPCSRPASPEPELLPELDSKKTPSPVRATETEKEPQRLLVPDIQEIRVSPIVSKKGYLHFLEPHTAGWAKRFVVVRRPYAYMYNSDKDTVERFVLNLSTAQVEYSEDQQAMLKTPNTFAVCTEHRGILLQANSDKDMHDWLYAFNPLLAGTIRSKLSRRRSAQMRV | ~2 | –
5 | KIF1A(1–393)-mCit (domain or fragment, rat, UniProt F1M4A4 1-393, looked up, full NC and several residues of the hinge; Plasmid was a gift from Gary Banker; source: COS cells, transfected, in lysate; not shown: mCit (monomeric citrine), C-terminal, kept) MAGASVKVAVRVRPFNSREMSRDSKCIIQMSGSTTTIVNPKQPKETPKSFSFDYSYWSHTSPEDINYASQKQVYRDIGEEMLQHAFEGYNVCIFAYGQTGAGKSYTMMGKQEKDQQGIIPQLCEDLFSRINDTTNDNMSYSVEVSYMEIYCERVRDLLNPKNKGNLRVREHPLLGPYVEDLSKLAVTSYNDIQDLMDSGNKARTVAATNMNETSSRSHAVFNIIFTQKRHDAETNITTEKVSKISLVDLAGSERADSTGAKGTRLKEGANINKSLTTLGKVISALAEMDSGPNKNKKKKKTDFIPYRDSVLTWLLRENLGGNSRTAMVAALSPADINYDETLSTLRYADRAKQIRCNAIINEDPNNKLIRELKDEVTRLRDLLYAQGLGDITD | 2 | –
